Molecular target: α7-2-nAChR (homomeric receptor of the rat α7-2 splice variant subunit expressed in Xenopus oocytes) (rat, UniProt Q05941 28-502)
Assay: summary statement; no assay given at this place

B1: α-bungarotoxin (ligand)
chain: IVCHTTATSPISAVTCPPGENLCYRKMWCDAFCSSRGKVVELGCAATCPSKKPYEEVTCCSTDKCNPHPKQRPG
  binding result: binds
